In article PMC4183148:
Where “and” joins values, the source holds several entries; their conditions need not be identical. Identical values can stand only once. Like-named read-outs stand apart in the source and are kept apart here.

What was measured:
[1] = target: PKM2 (pyruvate kinase, M2 isoform), endogenous (human (endogenous in HEK293T, H1299, U87)) (UniProt P14618); assay: SEC
[2] = target: PKM2 (pyruvate kinase, M2 isoform), endogenous (human (endogenous in HEK293T, H1299, U87)) (UniProt P14618); assay: SEC; remark: listed apart in the source

Chain of PKM2 (pyruvate kinase, M2 isoform), endogenous, P14618 1-531 (natural protein; other documents disagree on this pair) (P14618 whole entry, canonical isoform): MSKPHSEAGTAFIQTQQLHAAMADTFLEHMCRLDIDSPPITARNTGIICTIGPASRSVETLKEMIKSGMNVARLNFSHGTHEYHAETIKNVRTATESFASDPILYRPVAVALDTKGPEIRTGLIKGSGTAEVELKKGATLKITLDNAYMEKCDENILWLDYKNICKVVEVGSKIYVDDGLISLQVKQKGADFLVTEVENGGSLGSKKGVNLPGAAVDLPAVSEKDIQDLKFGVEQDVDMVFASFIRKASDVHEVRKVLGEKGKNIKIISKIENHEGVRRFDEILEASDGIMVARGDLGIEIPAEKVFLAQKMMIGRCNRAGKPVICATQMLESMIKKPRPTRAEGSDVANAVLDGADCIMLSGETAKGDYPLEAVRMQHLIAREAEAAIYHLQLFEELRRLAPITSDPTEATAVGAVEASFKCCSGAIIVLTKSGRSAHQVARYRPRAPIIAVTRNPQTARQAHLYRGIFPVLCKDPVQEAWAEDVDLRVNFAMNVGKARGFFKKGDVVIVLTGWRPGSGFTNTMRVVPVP

In the case of “PKM2 (pyruvate kinase, M2 isoform), endogenous, P14618 1-531 (natural protein; other documents disagree on this pair)”, the percent dimeric form [1] is reported as 78.9%, the percent tetrameric form [1] is reported as 20.1% and the percent dimeric form [2] is reported as 66.5% and 56%. For the same substance, the percent tetrameric form [2] was 26.2% and 43.8%.
